Experimental data as given in patent US20090257987A1, “Method of generating dopamine-secreting cells” (Ramot At Tel Aviv University Ltd., priority 2008, published 2009).

Tests used:
human MSCs [1] = experiment: Immunocytochemistry for neuronal markers Tuj1 and NeuN; assay type: cell-based
Method: Induction of differentiation: The differentiation protocol was composed of 2 steps. In step 1, cells were transferred to serum-free medium (DMEM) supplemented with 2 mM glutamine, 100 μg/ml streptomycin, 100 units/ml penicillin, 12.5 units/ml nystatin (Biological Industries), N2 supplement (Invitrogen, New Haven, Conn.) and 20 ng/ml fibroblast growth factor 2 and epidermal growth factor (both from R&D Systems, Minneapolis, Minn.) for 48-72 hours. In step 2, the medium was changed to Basic induction medium containing Neurobasal, B27 (both from Invitrogen), in addition to 1 mM dibutyryl cyclic AMP (dbcAMP), 3-isobutyl-1-methyl-xanthine (IBMX), and 200 μM ascorbic acid (all from Sigma, St Louis, Mo.). […] Cells were photographed with a fluorescence Olympus IX70-[…] microscope with a fluorescent light source (excitation wavelength, 330-385 nm; barrier filter, 420 nm) and a U-MNU filter cube (Olympus, Center Valley, Pa.).

human MSCs [2] = experiment: HPLC analysis of dopamine secretion; assay type: cell-based
Method: Induction of differentiation: The differentiation protocol was composed of 2 steps. In step 1, cells were transferred to serum-free medium (DMEM) supplemented with 2 mM glutamine, 100 μg/ml streptomycin, 100 units/ml penicillin, 12.5 units/ml nystatin (Biological Industries), N2 supplement (Invitrogen, New Haven, Conn.) and 20 ng/ml fibroblast growth factor 2 and epidermal growth factor (both from R&D Systems, Minneapolis, Minn.) for 48-72 hours. In step 2, the medium was changed to Basic induction medium containing Neurobasal, B27 (both from Invitrogen), in addition to 1 mM dibutyryl cyclic AMP (dbcAMP), 3-isobutyl-1-methyl-xanthine (IBMX), and 200 μM ascorbic acid (all from Sigma, St Louis, Mo.). The following factors were added to the Basic induction medium in different combinations: brain-derived neurotrophic factor (BDNF; 50 ng/ml), glial-derived neurotrophic factor (GDNF;10 ng/ml), neurturin (100 ng/ml), neurotrophin 3 (NT3; 50 ng/ml), and fibroblast growth factor 8 (FGF8; 100 ng/ml (all from Cytolab, Rehovot, Israel); transforming growth factor β3 (TGFβ3; 2 ng/ml), sonic hedgehog (Shh; 500 ng/ml, both from R&D); estrogen (0.1 μM, Sigma); and all-trans-retinoic acid (RA; 0.1 μM, Sigma). High performance liquid chromotography (HPLC): Reverse-phase HPLC coupled with an electrochemical detector (ECD) was used to measure dopamine levels. […]

B1: brain-derived neurotrophic factor (protein, UniProt P23560 19-247, looked up)
Neurotrophic factor BDNF …: APMKEANIRGQGGLAYPGVRTHGTLESVNGPKAGSRGLTSLADTFEHVIEELLDEDQKVRPNEENNKDADLYTSRVMLSSQVPLEPPLLFLLEEYKNYLDAANMSMRVRRHSDPARRGELSVCDSISEWVTAADKKTAVDMSGGTVTVLEKVPVSKGQLKQYFYETKCNPMGYTKEGCRGIDKRHWNSQCRTTQSYVRALTMDSKKRIGWRFIRIDTSCVCTLTIKRGR
notes: brain-derived neurotrophic factor (50 ng/ml) added to the Basic induction medium
Human MSCs [1]
  NeuN staining: stained positive
Human MSCs [1]; versus untreated MSCs
  Tuj 1 expression: higher levels
Human MSCs [2]; 56 mM KCL in HBSS for 30 minutes
  dopamine secreted to the depolarization buffer (mean): 1127.86 pg/ml of dopamine per 10^6 cells
Human MSCs [2]; differentiation medium
  dopamine secreted to the conditioned media (mean): 673.69 pg/ml of dopamine per 10^6 cells
